For this data set, the target named is ZNF207 isoform C (human, UniProt O43670-4 1-494). Briefly: EMSA; 100 ng protein, 3 ng probe, 1 ug poly(dI-dC), 10 mM MgCl2; 10 mM HEPES pH 7.5, 10 mM KCl, 10 mM MgCl2, 1 mM DTT, 1 mM EDTA, 10% glycerol, 1 ug poly(dI-dC) in 10 ul, 10 min at room temperature; 5% native PAGE in 0.5x TBE. The note with it: protein: commercial; label: 5' biotin on sense strand; duplex of annealed sense and reverse strands.
ZNF207 isoform C, sequence (O43670 other isoform, or with tags, fused parts or gaps): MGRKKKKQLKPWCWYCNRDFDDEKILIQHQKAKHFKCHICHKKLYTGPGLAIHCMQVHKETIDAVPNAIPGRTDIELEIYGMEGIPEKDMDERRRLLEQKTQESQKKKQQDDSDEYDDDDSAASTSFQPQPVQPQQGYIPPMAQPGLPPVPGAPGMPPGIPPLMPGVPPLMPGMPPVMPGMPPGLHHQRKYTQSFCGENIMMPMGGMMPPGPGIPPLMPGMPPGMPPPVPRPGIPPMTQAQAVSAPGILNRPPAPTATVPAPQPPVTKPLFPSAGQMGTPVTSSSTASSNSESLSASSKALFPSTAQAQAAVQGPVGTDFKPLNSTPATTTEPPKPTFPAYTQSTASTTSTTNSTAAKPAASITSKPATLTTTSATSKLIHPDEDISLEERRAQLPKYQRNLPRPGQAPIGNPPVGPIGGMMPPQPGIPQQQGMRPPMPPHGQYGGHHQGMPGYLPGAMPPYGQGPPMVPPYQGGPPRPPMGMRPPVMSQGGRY

B1: ZNF207 motif MUT (dsDNA)
DNA 1: TTTTAAACACGCGTGTGTTAG
DNA 2: CTAACACACGCGTGTTTAAAA
As to B1, the binding result is listed as “no binding”.

B2: ZNF207 motif WT (dsDNA)
DNA 1: TTTGAAACACTCTTTTTGTAG
DNA 2: CTACAAAAAGAGTGTTTCAAA
As for B2, the binding result is given as “binds”.

(Values after article PMC6197280, “A distinct isoform of ZNF207 controls self-renewal and pluripotency of human embryonic stem cells”.)
